Data from paper PMC4300205, “Human Cerberus Prevents Nodal-Receptor Binding, Inhibits Nodal Signaling, and Suppresses Nodal-Mediated Phenotypes” (PLoS ONE, 2015).

T1: Recombinant Activin A (human, UniProt P08476 311-426)
T1 construct: Activin A (inhibin beta A chain), recombinant; source: bought: R&D Biosystems or Life Technologies; also produced in-house
T1 sequence (looked up): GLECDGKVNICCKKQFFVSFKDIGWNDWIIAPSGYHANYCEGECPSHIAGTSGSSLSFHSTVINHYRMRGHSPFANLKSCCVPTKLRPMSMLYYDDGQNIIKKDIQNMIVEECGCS

T2: Human Cerberus-hIgg-Fc (human), O95813
T2 chain: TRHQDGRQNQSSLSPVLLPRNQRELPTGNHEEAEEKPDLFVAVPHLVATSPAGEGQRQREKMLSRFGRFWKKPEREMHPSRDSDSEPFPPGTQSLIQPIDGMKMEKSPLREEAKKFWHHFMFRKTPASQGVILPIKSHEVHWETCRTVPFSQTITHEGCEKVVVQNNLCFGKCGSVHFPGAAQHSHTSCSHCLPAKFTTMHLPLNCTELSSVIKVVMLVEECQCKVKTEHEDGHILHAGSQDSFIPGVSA

T3: Cripto-1-Fc (human, UniProt P13385 31-151)
T3 construct: signal peptide in the construct; Cripto1 (1-151), amplicon from cDNA (Thermo Scientific) fused to the hIgg1-Fc domain by PCR; source: CHO cells, purified from conditioned medium (Protein A, SEC)
T3 sequence (looked up): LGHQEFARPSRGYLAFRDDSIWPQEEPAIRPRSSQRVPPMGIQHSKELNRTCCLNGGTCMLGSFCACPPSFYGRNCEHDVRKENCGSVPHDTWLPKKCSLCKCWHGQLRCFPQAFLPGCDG

T4: Human Cerberus-hIgg-Fc (human, UniProt O95813 18-267)
T4 construct: signal peptide in the construct; also called Cerberus-Fc; full-length Cerberus-Fc; source: CHO cells, purified from conditioned medium (Protein A, SEC); not shown: Fc (human IgG1), C-terminal, kept
T4 sequence (looked up): T2 chain

T5: BMPRII-Fc (human, UniProt Q13873 27-150)
T5 construct: type II receptor BMPRII, human, extracellular domain-Fc fusion; Bought protein; source: bought: R&D Biosystems or Life Technologies
T5 sequence (looked up): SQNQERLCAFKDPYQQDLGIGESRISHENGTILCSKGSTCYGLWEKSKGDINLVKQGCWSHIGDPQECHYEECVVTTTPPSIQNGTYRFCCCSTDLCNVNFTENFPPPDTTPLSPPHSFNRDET

B1: human ACTRIIB-hIgg-Fc (Fc fusion, UniProt Q13705 19-120, looked up)
chain: SGRGEAETRECIYYNANWELERTNQSGLERCEGEQDKRLHCYASWRNSSGTIELVKKGCWLDDFNCYDRQECVATEENPQVYFCCCEGNFCNERFTHLPEAG
notes: signal peptide in the construct; extracellular domain of human ActRIIB (1-120), joined to human IgG1 Fc by a 22 amino acid linker with a TEV site, a glycine/serine rich region and a FLAG-tag; Synthetic gene from GeneArt; also called ACTRIIB-Fc; source: CHO cells, purified from conditioned medium (Protein A, SEC)
B2: Recombinant BMP-2, P12643 283-396 (ligand)
chain: QAKHKQRKRLKSSCKRHPLYVDFSDVGWNDWIVAPPGYHAFYCHGECPFPLADHLNSTNHAIVQTLVNSVNSKIPKACCVPTELSAISMLYLDENEKVVLKNYQDMVVEGCGCR
B3: recombinant human Nodal (ligand, UniProt Q96S42 238-347, looked up)
chain: HHLPDRSQLCRKVKFQVDFNLIGWGSWIIYPKQYNAYRCEGECPNPVGEEFHPTNHAYIQSLLKRYQPHRVPSTCCAPVKTKPLSMLYVDNGRVLLDHHKDMIVEECGCL
notes: Nodal, human, recombinant (RnD Systems); source: bought: RnD Systems
B4: human ALK4-hIgg-Fc (Fc fusion, UniProt P36896 24-110, looked up)
chain: SGPRGVQALLCACTSCLQANYTCETDGACMVSIFNLDGMEHHVRTCIPKVELVPAGKPFYCLSSEDLRNTHCCYTDYCNRIDLRVPS
notes: signal peptide in the construct; extracellular domain of human ALK4 (1-110), joined to human IgG1 Fc by a 22 amino acid linker with a TEV site, a glycine/serine rich region and a FLAG-tag; Synthetic gene from GeneArt; also called ALK4-Fc; source: CHO cells, purified
B5: Recombinant GDF-11 (ligand, human, UniProt O95390 299-407, looked up)
chain: NLGLDCDEHSSESRCCRYPLTVDFEAFGWDWIIAPKRYKANYCSGQCEYMFMQKYPHTHLVQQANPRGSAGPCCTPTKMSPINMLYFNDKQQIIYGKIPGMVVDRCGCS
notes: GDF-11, recombinant; source: bought: R&D Biosystems or Life Technologies

Experiments:
Assay in all cases: SPR; Biacore 2000; 200-300 RU of Fc fusion captured by anti-human IgG (Fc) antibody on a CM5 chip; concentration series of ligand injected at 50 ul/min; 25 C; HBS-EPS (0.01 M HEPES, 0.5 M NaCl, 3 mM EDTA, 0.005% Tween 20, pH 7.4); 1:1 Langmuir model with mass transport; Kd = kd/ka
Recombinant Activin A = biological target: T1, Recombinant Activin A; details: both partners purified
recombinant human Nodal = biological target: B3; details: both partners purified
[1] = biological target: T2, Human Cerberus-hIgg-Fc (human), O95813; details: remark: other sources report otherwise
Cripto-1-Fc = biological target: T3, Cripto-1-Fc; details: both partners purified
human Cryptic-hIgg-Fc = biological target: T6, human Cryptic-hIgg-Fc (human, UniProt P0CG37 26-158); details: both partners purified
T6 construct: signal peptide in the construct; human Cryptic (1-158), joined to human IgG1 Fc by a 22 amino acid linker with a TEV site, a glycine/serine rich region and a FLAG-tag; Synthetic gene from GeneArt; also called Cryptic-Fc; source: CHO cells, purified from conditioned medium (Protein A, SEC)
T6 sequence (P0CG37 26-158): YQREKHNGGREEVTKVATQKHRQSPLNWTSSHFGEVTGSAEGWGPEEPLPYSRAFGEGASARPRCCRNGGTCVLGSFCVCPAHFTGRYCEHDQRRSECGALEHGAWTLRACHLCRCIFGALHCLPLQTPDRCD

Human Cerberus-hIgg-Fc [2] = biological target: T4, Human Cerberus-hIgg-Fc; details: both partners purified
BMPRII-Fc = biological target: T5, BMPRII-Fc; details: both partners purified
Human Cerberus-hIgg-Fc [3] = biological target: T4, Human Cerberus-hIgg-Fc; details: both partners purified; remark: listed apart in the source

Binder | Kd (Recombinant Activin A) | koff (Recombinant Activin A) | kon (Recombinant Activin A) | Kd (recombinant human Nodal) | koff (recombinant human Nodal) | kon (recombinant human Nodal) | Kd (Human Cerberus-hIgg-Fc [2]) | koff (Human Cerberus-hIgg-Fc [2]) | kon (Human Cerberus-hIgg-Fc [2]) | further results
B1 | 0.018 nM | 2.7e-05 s⁻¹ | 1.5e+06 M⁻¹ s⁻¹ | ~10 nM | ~0.00049 s⁻¹ | ~49000 M⁻¹ s⁻¹ |  |  |  | 
B2 |  |  |  |  |  |  |  |  |  | Kd [1]: 3000 nM; koff [1]: 0.072 s⁻¹; kon [1]: 24000 M⁻¹ s⁻¹
B3 |  |  |  |  |  |  | 1.1 nM | 1.4e-05 s⁻¹ | 13000 M⁻¹ s⁻¹ | Kd (Cripto-1-Fc): 16 nM; koff (Cripto-1-Fc): 0.00026 s⁻¹; kon (Cripto-1-Fc): 10000 M⁻¹ s⁻¹; Kd (human Cryptic-hIgg-Fc): 2000 nM; koff (human Cryptic-hIgg-Fc): 0.001 s⁻¹; kon (human Cryptic-hIgg-Fc): 550 M⁻¹ s⁻¹; Kd (BMPRII-Fc): 0.149 nM; koff (BMPRII-Fc): 4.6e-05 s⁻¹; kon (BMPRII-Fc): 310000 M⁻¹ s⁻¹; Kd (Human Cerberus-hIgg-Fc [3]): 1 nM
B4 | 2.4 nM | 0.00048 s⁻¹ | 200000 M⁻¹ s⁻¹ | ~15 nM | ~0.00032 s⁻¹ | ~46000 M⁻¹ s⁻¹ |  |  |  | 
B5 |  |  |  |  |  |  | 5800 nM | 0.014 s⁻¹ | 1200 M⁻¹ s⁻¹ | 
